Reference: paper PMC4612572

B1: Aurora A (enzyme)
chain: MDRSKENCISGPVKATAPVGGPKRVLVTQQFPCQNPLPVNSGQAQRVLCPSNSSQRIPLQAQKLVSSHKPVQNQKQKQLQATSVPHPVSRPLNNTQKSKQPLPSAPENNPEEELASKQKNEESKKRQWALEDFEIGRPLGKGKFGNVYLAREKQSKFILALKVLFKAQLEKAGVEHQLRREVEIQSHLRHPNILRLYGYFHDATRVYLILEYAPLGTVYRELQKLSKFDEQRTATYITELANALSYCHSKRVIHRDIKPENLLLGSAGELKIADFGWSVHAPSSRRTTLCGTLDYLPPEMIEGRMHDEKVDLWSLGVLCYEFLVGKPPFEANTYQETYKRISRVEFTFPDFVTEGARDLISRLLKHNPSQRPMLREVLEHPWITANSSKPSNCQNKESASKQS

Experiments:
[1] = target: p766-Gravin (human (endogenous in U2OS; cells of Figure 2E-H not stated)) (UniProt Q02952); test: proximity ligation; in situ PLA in U2OS cells stably expressing the mother centriole marker myc-centriolin; signal at the mother spindle pole relative to the daughter spindle pole
[2] = target: p766-Gravin (human (endogenous in U2OS; cells of Figure 2E-H not stated)) (UniProt Q02952); test: proximity ligation; in situ PLA with antibodies to p766-Gravin and to Aurora A or Plk1 in fixed cells at different stages of the cell cycle; integrated signal per cell normalised to interphase cells; n = 3 experiments
[3] = target: Gravin (human (endogenous in HEK293)) (UniProt Q02952)

| Molecule | fold PLA signal, mother against daughter spindle pole [1] [fold] | fold PLA signal, metaphase against interphase cells [2] [fold] | Kemptide (300 uM) phosphorylation (32P incorporation) in Gravin immune complexes isolated from mitotic lysates; share blocked by the Aurora A inhibitor VX-680 [3] [%] | fold PLA puncta, mother against daughter spindle pole [1] [fold] |
| --- | --- | --- | --- | --- |
| polo-like kinase 1 (from UniProt P53350 1-603) (enzyme) | 2.35 | 10.3 |  |  |
| B1 |  | 3.86 | 33.5 | 4.16 |
